From publication doi:10.1101/2025.04.04.646765, “Molecular basis for multidrug efflux by an anaerobic RND transporter” (bioRxiv, 2025)

Target: the molecule itself
Test: cryo-EM structure

| Protein | stoichiometry N | binding result |
| --- | --- | --- |
| Escherichia coli multidrug transporter MdtF, wild type (MdtF-6xHis) in SMA lipid particles (natural protein, also called MdtF^WT; apo-MdtF^WT; source: E. coli C43(DE3) ΔacrAB, extracted in SMALPs, purified (Ni-NTA, SEC)) MANYFIDRPVFAWVLAIIMMLAGGLAIMNLPVAQYPQIAPPTITVSATYPGADAQTVEDSVTQVIEQNMNGLDGLMYMSSTSDAAGNASITLTFETGTSPDIAQVQVQNKLQLAMPSLPEAVQQQGISVDKSSSNILMVAAFISDNGSLNQYDIADYVASNIKDPLSRTAGVGSVQLFGSEYAMRIWLDPQKLNKYNLVPSDVISQIKVQNNQISGGQLGGMPQAADQQLNASIIVQTRLQTPEEFGKILLKVQQDGSQVLLRDVARVELGAEDYSTVARYNGKPAAGIAIKLAAGANALDTSRAVKEELNRLSAYFPASLKTVYPYDTTPFIEISIQEVFKTLVEAIILVFLVMYLFLQNFRATIIPTIAVPVVILGTFAILSAVGFTINTLTMFGMVLAIGLLVDDAIVVVENVERVIAEDKLPPKEATHKSMGQIQRALVGIAVVLSAVFMPMAFMSGATGEIYRQFSITLISSMLLSVFVAMSLTPALCATILKAAPEGGHKPNALFARFNTLFEKSTQHYTDSTRSLLRCTGRYMVVYLLICAGMAVLFLRTPTSFLPEEDQGVFMTTAQLPSGATMVNTTKVLQQVTDYYLTKEKDNVQSVFTVGGFGFSGQGQNNGLAFISLKPWSERVGEENSVTAIIQRAMIALSSINKAVVFPFNLPAVAELGTASGFDMELLDNGNLGHEKLTQARNELLSLAAQSPNQVTGVRPNGLEDTPMFKVNVNAAKAEAMGVALSDINQTISTAFGSSYVNDFLNQGRVKKVYVQAGTPFRMLPDNINQWYVRNASGTMAPLSAYSSTEWTYGSPRLERYNGIPSMEILGEAAAGKSTGDAMKFMADLVAKLPAGVGYSWTGLSYQEALSSNQAPALYAISLVVVFLALAALYESWSIPFSVMLVVPLGVVGALLATDLRGLSNDVYFQVGLLTTIGLSAKNAILIVEFAVEMMQKEGKTPIEAIIEAARMRLRPILMTSLAFILGVLPLVISHGAGSGAQNAVGTGVMGGMFAATVLAIYFVPVFFVVVEHLFARFKKA | 3 | – |
| Escherichia coli multidrug transporter MdtF, single-point mutant V610F (MdtF-6xHis) in SMA lipid particles (natural protein, also called MdtF^V610F; apo-MdtF^V610F; source: E. coli C43(DE3) ΔacrAB, extracted in SMALPs, purified (Ni-NTA, SEC)) MANYFIDRPVFAWVLAIIMMLAGGLAIMNLPVAQYPQIAPPTITVSATYPGADAQTVEDSVTQVIEQNMNGLDGLMYMSSTSDAAGNASITLTFETGTSPDIAQVQVQNKLQLAMPSLPEAVQQQGISVDKSSSNILMVAAFISDNGSLNQYDIADYVASNIKDPLSRTAGVGSVQLFGSEYAMRIWLDPQKLNKYNLVPSDVISQIKVQNNQISGGQLGGMPQAADQQLNASIIVQTRLQTPEEFGKILLKVQQDGSQVLLRDVARVELGAEDYSTVARYNGKPAAGIAIKLAAGANALDTSRAVKEELNRLSAYFPASLKTVYPYDTTPFIEISIQEVFKTLVEAIILVFLVMYLFLQNFRATIIPTIAVPVVILGTFAILSAVGFTINTLTMFGMVLAIGLLVDDAIVVVENVERVIAEDKLPPKEATHKSMGQIQRALVGIAVVLSAVFMPMAFMSGATGEIYRQFSITLISSMLLSVFVAMSLTPALCATILKAAPEGGHKPNALFARFNTLFEKSTQHYTDSTRSLLRCTGRYMVVYLLICAGMAVLFLRTPTSFLPEEDQGVFMTTAQLPSGATMVNTTKVLQQVTDYYLTKEKDNVQSVFTFGGFGFSGQGQNNGLAFISLKPWSERVGEENSVTAIIQRAMIALSSINKAVVFPFNLPAVAELGTASGFDMELLDNGNLGHEKLTQARNELLSLAAQSPNQVTGVRPNGLEDTPMFKVNVNAAKAEAMGVALSDINQTISTAFGSSYVNDFLNQGRVKKVYVQAGTPFRMLPDNINQWYVRNASGTMAPLSAYSSTEWTYGSPRLERYNGIPSMEILGEAAAGKSTGDAMKFMADLVAKLPAGVGYSWTGLSYQEALSSNQAPALYAISLVVVFLALAALYESWSIPFSVMLVVPLGVVGALLATDLRGLSNDVYFQVGLLTTIGLSAKNAILIVEFAVEMMQKEGKTPIEAIIEAARMRLRPILMTSLAFILGVLPLVISHGAGSGAQNAVGTGVMGGMFAATVLAIYFVPVFFVVVEHLFARFKKA | – | binds |
